What all share (experiment): cell-based or functional assay
Assay [1] has as its target TGFβ1 (R&D systems) (UniProt P01137).
Assay [2] has the same target. The source holds these as a separate data set.
The target in assay [3] is IL2Rβ and common γ chain on 32Dβ cells.
The target in the next assay is IL2Rαβγ on CTLL2 cells.
Assay [4] concerns the target IL2Rβ and common γ chain on 32Dβ cells. This is another data set of the same source.

Like-named read-outs stand apart in the source and are kept apart here.

UniProt P01137, sequence (P01137 279-390 limits assumed): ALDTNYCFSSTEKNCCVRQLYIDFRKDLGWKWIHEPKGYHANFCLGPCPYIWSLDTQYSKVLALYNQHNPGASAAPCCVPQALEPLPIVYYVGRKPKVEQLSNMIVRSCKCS

“Human recombinant TGFβRII/Fc (from UniProt P37173 24-159) (Fc fusion)”: the IC50, inhibition of TGFβ1 activity in HEK-Blue TGFβ cells in the assay with TGFβ1 (R&D systems) [1] was 559 pM; with TGFβ1 (R&D systems) [2], 461 pM.

With “human recombinant IL-15 (from UniProt P40933 49-162) (ligand)”, the EC50, 32Dβ cell proliferation (WST1) in assay [3] is 10.6 pM. For the same substance, in the assay with IL2Rαβγ on CTLL2 cells, the EC50, CTLL2 cell proliferation (PrestoBlue) amounted to 4.95 pM and the EC50, CTLL2 cell proliferation (WST1) was 6.22 pM. Further, in assay [4], the EC50 (printed EC:), 32Dβ cell proliferation (WST1) amounted to 16.6 pM and the EC50, 32Dβ cell proliferation (WST1) turned out to be 16.6 pM.

The values are drawn from patent publication US20240124543A1.
